Experimental data reported in the supplement of paper PMC10126150.
± gives the standard deviation of the averaged measurements.

System: ATP
Experiment: switch fluorescence ratio, 500 uM ATP over buffer (Cy3 cluster intensity, sum of 5 cycles each) (fold (ratio)); higher = stronger signal-on switching upon ATP binding; sequences stand for … in TCGTCGGCAGCGTCAGATGTGTATAAGAGACAGTTTTTTTTTTTTTTTTTTTTTTTTT…TC
Conditions: aptamer strand: ATP DNA aptamer (quencher-CACCTGGGGGAGTATTGCGGAGGAAGG + anchor), 100 nM annealed; ATP concentration: 500 uM
Summary of the method: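 Exposure to 500 uM ATP lasted 15 min at 22 °C before imaging, and a selection-buffer image was taken beforehand, for Cy3-labelled switching-strand clusters on a modified Illumina MiSeq flow-cell annealed to 100 nM quencher-labelled ATP aptamer. Five buffer/ATP cycles were run with NaOH stripping and re-annealing between them. The fluorescence ratio per cluster is summed target-cycle over summed buffer-cycle Cy3 intensity, averaged per switch-domain sequence. Clusters outside 100-1000 RFU were excluded.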

| Sequence | switch fluorescence ratio |
| --- | --- |
| TGCCAATATC | 1.7 ± 0.08 |
| TGCCAATATG | 1.06 ± 0.014 |
| TGCCATGTTT | 0.966 ± 0.014 |
| TGCCCCGATA | 2.66 ± 2.3 |
| TGCCCGCCGT | 1.03 ± 0.067 |
| TGCCCTTTTT | 1.01 ± 0.095 |
| TGCCGATCAG | 0.993 ± 0.05 |
| TGCCGCAAAA | 1.82 ± 0.85 |
| TGCCGGGGGC | 1.04 ± 0.025 |
| TGCCGGGGTT | 1.1 ± 0.2 |
| TGCCGGTAAA | 1.01 ± 0.051 |
| TGCCTAACTT | 1.019 ± 0.0066 |
| TGCCTAAGAT | 1 ± 0.021 |
| TGCCTCTTTT | 0.9886 ± 0.006 |
| TGCCTTATGG | 0.983 ± 0.045 |
| TGCCTTATTT | 0.9999 ± 0.0049 |
| TGCCTTGCTT | 1.01 ± 0.023 |
| TGCCTTTTTT | 1 ± 0.016 |
| TGCGAAACTT | 1.07 ± 0.011 |
| TGCGAATTCG | 0.996 ± 0.037 |
| TGCGACCATT | 1.03 ± 0.04 |
| TGCGAGATTT | 1.01 ± 0.018 |
| TGCGAGGATG | 1 ± 0.0028 |
| TGCGAGGGGA | 1.01 ± 0.032 |
| TGCGAGGTCA | 1.03 ± 0.022 |
| TGCGATATTA | 1.02 ± 0.031 |

| Sequence | switch fluorescence ratio |
| --- | --- |
| TGCGATGGTC | 1.18 ± 0.065 |
| TGCGATTATG | 1.02 ± 0.041 |
| TGCGATTTGT | 1.04 ± 0.043 |
| TGCGCAATTT | 1.205 ± 0.0054 |
| TGCGCCTCAG | 1.08 ± 0.074 |
| TGCGGCCGGG | 1.01 ± 0.012 |
| TGCGGCGACG | 0.993 ± 0.015 |
| TGCGGCTGGG | 0.978 ± 0.019 |
| TGCGGCTTCG | 0.913 ± 0.061 |
| TGCGGGCTAG | 1.01 ± 0.015 |
| TGCGGGGTAC | 1.25 ± 0.045 |
| TGCGGGGTCA | 1.02 ± 0.034 |
| TGCGGGTAAT | 0.9985 ± 0.0046 |
| TGCGGGTGGG | 1.03 ± 0.026 |
| TGCGGGTTAG | 0.984 ± 0.032 |
| TGCGGTCCTG | 1 ± 0.017 |
| TGCGGTCGCG | 0.959 ± 0.012 |
| TGCGGTGTGC | 1.04 ± 0.017 |
| TGCGTAGGGT | 0.967 ± 0.011 |
| TGCGTAGTTA | 0.987 ± 0.012 |
| TGCGTCAAAT | 0.999 ± 0.024 |
| TGCGTCCCAA | 1.34 ± 0.021 |
| TGCGTCGGCG | 1 ± 0.013 |
| TGCGTGAAGT | 1.041 ± 0.0091 |
| TGCGTTGGTG | 1.006 ± 0.0061 |
| TGCTAAAGGT | 0.9836 ± 0.0095 |

| Sequence | switch fluorescence ratio |
| --- | --- |
| TGCTACAGGA | 1.02 ± 0.0049 |
| TGCTACTGC | 1.03 ± 0.015 |
| TGCTAGAAGT | 0.9792 ± 0.003 |
| TGCTATAAAG | 0.988 ± 0.043 |
| TGCTATAATG | 1.02 ± 0.021 |
| TGCTATATTA | 0.99152 ± 0.00065 |
| TGCTCAATGA | 0.9737 ± 0.0075 |
| TGCTGAGTTT | 1.01 ± 0.05 |
| TGCTGCCTAC | 2.38 ± 1.6 |
| TGCTGCGGTG | 0.993 ± 0.0084 |
| TGCTGGAAGT | 0.977 ± 0.032 |
| TGCTGGACTT | 0.987 ± 0.015 |
| TGCTGGATT | 0.983 ± 0.025 |
| TGCTGGATTA | 1.01 ± 0.031 |
| TGCTGGCCGG | 0.98 ± 0.022 |
| TGCTGGCTGG | 0.973 ± 0.0016 |
| TGCTGGGGAA | 1.01 ± 0.028 |
| TGCTGGGTAT | 0.9954 ± 0.0031 |
| TGCTGGGTCC | 1.02 ± 0.02 |
| TGCTGGGTTT | 0.998 ± 0.011 |
| TGCTGTTGGC | 0.928 ± 0.025 |
| TGCTTCATGT | 0.985 ± 0.027 |
| TGCTTGTATT | 1.01 ± 0.027 |
| TGCTTGTTAG | 0.989 ± 0.07 |
| TGCTTTAAAG | 1 ± 0.037 |
